Measurements taken from patent publication US20250250357A1 (NANJING ZAIMING PHARMACEUTICAL, published 2025).

B1: S009-F7.25.19 (antibody, human IgG1, kappa, V domains shown)
VH: QVQLQQPGTELVKPGASVKLSCKASGYTFTSYWMHWVKQRPGQGLEWIGNIIPSNGGTKYNEKFKSKATLTVDKSSSTAYMQLSSLTSEDSAVYYCSPHYYGGSPGFAYWGQGTLITVSA
VL: DIVMTQSQKFMSTSVGDRVSVICKASQNVGTNVAWYQQKPGQSPKALIYSASYRYSGVPDRFTGSGSGTDFTLTISNVQSEDLAEYFCQQYNSYPLTFGGGTKLEIKR
notes: human-murine chimeric antibody, human IgG1/kappa constant regions
B2: S009-F7.30.5 (antibody, human IgG1, kappa, V domains shown)
VH: QVQLQQPKTELVKPGASVKLSCKASGYIFTTYWMHWVKQRPGQGLEWIGNVNPSNGGTMYNEKFERRATLTVDKSSSTADMQLSSLTSEDSAVYYCVPHYIGSRPGFAYWGQGTLVTVSG
VL: DIVMTQSQKFMSTSVGDRVSVTCKASQNVGTNVAWYQHKPGQSPKALLYSASYRYSGVPDRFTGSGSGTDFTLTITNVQSEDLAEYFCQQYNSYPLTFGGGTKLEIKR
notes: as for B1
B3: S009-F7.48.1 (antibody, human IgG1, kappa, V domains shown)
VH: QVQLQQPGTELVKPGASVKLSCKASGYTFTSYWMHWVKQRPGQGLEWIGNINPSNGGTNNNENFKSKATLTVDTSSSTAYMQLSSLTSEDSAVYYCVRNGYHGYWYFDVWGTGTTVTVSS
VL: DIVMTQSQKFMSTSVGDRVSVTCKASQNVGTNVAWYQQQPGQSPKALIYSASYRYSGVPDRFTGSVSGTDFTLTISNVQSEDLAEYFCQQYNSYPLTFGGGTKLEIKR
notes: as for B1
B4: S009-F7.33.24 (antibody, human IgG1, kappa, V domains shown)
VH: QVQLQQPGTELVKPGASVKLSCKASGYTFTSYWMHWVKQRPGQGLEWIGNVNPSNGGSNYNEKFKNKATLTVDKSSSTADMQLNSLTSEDSAVYYCAPHYIGSRPGFAYWGQGTLVTVSG
VL: DIVMTQSQKFMSTSVGDRVSVTCKASQNVGTNIAWYQQKPGQSPKALIYSASYRYSGVPDRFTGSGSGTDFTLTITNVQSEDLAEYFCQQYNSYPLTFGGGTKVEIKR
notes: as for B1
B5: S009-F7.53.2 (antibody, human IgG1, kappa, V domains shown)
VH: EVQLQQSGPELVKPGASVKIPCKTSGYTFTDYNMDWVKQSHGKSLEWIGDINPNTDGAIYNQKFQNKATLTVDKSSSTAYMELRSLTSEDTAVYYCTRRKLGRKFFDYWGQGTTLTVSS
VL: QIVLTQSPAIMSASPGEQVTMTCSASSSVGYMNWYQQKPGSSPRLLIYDTSNLASGVPVHFSGSGSGTSYSLTISRMEAAFAATYYCQQWYVYPYTFGGGTKLEIKR
notes: as for B1
B6: S009-F7.26.15 (antibody, human IgG1, kappa, V domains shown)
VH: DVQLQESGPGLVKPSQTVFLTCTVTGISITTGNYRWSWIRQFPGNKLEWIGYIYYTGFITYNPSLTSRTTITRDTPKNQFFLEMKSLTAEDTATYYCARDDYDYDVFAYWGQGTLVTVSA
VL: DIQMTQSPASLSASVGETVTITCRASGNIHNYLAWYHQKQGKSPQFLVYKAKTLADGVPSRFSGSGSGTQYSLKINRLQPEDFGSYYCQHFLSIPLTFGAGTKLELKR
notes: as for B1
B7: S009-F7.67.12 (antibody, human IgG1, kappa, V domains shown)
VH: QVQLQQPGTELVKPGASVRLSCRASGYSFSSYWMHWVKQRPGQGLEWLGNINPTTGDINYNEKFRNRATLAVDKSSTTAYLQLTSLTSEDSAVYFCVRHDGFLWGQGTTLTVSS
VL: DIQMTQSPASLSASVGETVTITCRASENIYSYLAWYQQKQGKSPQLLVYYAKTLAEGVSSRFSGSGSGTQFSLKINSLQPEDFGTYYCQHQFGTPRTFGGGTKLEIRR
notes: as for B1
B8: S009-F7.44.20 (antibody, human IgG1, kappa, V domains shown)
VH: EVQLQQSGPELVKPGASVKIPCKASGYTFTDYNMDWVKQSHGKSLEWIGDINPSTGGTIYNQKFNGKATLTEDKSASTVYMEFRSLTSDDTAVYYCARRRIGTGYFDVWGTGTTVTVSS
VL: QIVLTQSPALMSASPGEKVTLTCSASSSVISSYLSWYQQKPGSSPKLLIYRTSNLASGVPARFSGSGSGTSYSLTISSMEAEDAASYFCHQWSSFPYTFGGGTKLEIKR
notes: as for B1
B9: S009-F7.61.21 (antibody, human IgG1, kappa, V domains shown)
VH: DVQLQQSGPELVEPGASVRIPCKAAGHTFTDYNVDWVKQSHGQSLEWIGDVNPNTDGAIYNQKFEGKATLTVDTSSSTAYMELRSLTSEDTAVYFCARRRLGQGGFDSWGQGTTLTVSS
VL: QVVLTQSPAIMSASPGEKVTLTCGASSSLISKYLYWYQQKPGSSPKLWIYSTSNLASGVPARFSGSGSGTSYSLTISSMEAEDAASYFCHQWSSYPYTFGGGTKVEIKR
notes: as for B1
B10: S009-F7.41.18 (antibody, human IgG1, kappa, V domains shown)
VH: QVQLQQPGTELVKPGASVKLSCKASDYTFTSYWMHWVKQRPGQGLEWIGSINPSNGDTYYNEKFKNKATLTVDKSSSTAYMQLSSLTSDDSAVYYCARGWYFDVWGTGTTVTVSS
VL: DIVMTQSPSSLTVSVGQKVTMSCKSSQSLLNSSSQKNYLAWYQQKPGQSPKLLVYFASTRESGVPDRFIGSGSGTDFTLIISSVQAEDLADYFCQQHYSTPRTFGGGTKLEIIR
notes: as for B1
B11: S009-F7.66.12 (antibody, human IgG1, kappa, V domains shown)
VH: QIPLQQSGPELVKPGASVRISCKASDYAFSSSWMNWVKQRPEKGLEWIGRIFVESGNTHYNDKFNGKATLTADKSSRTAYIQLSSLTSEDSAVYFCTRENIFYHGHSSWFAYWGQGTLVTVSA
VL: DIVLTQSPASLVVSLGQRATISCRAGESVDDFGISYVHWYQQKPGQPPKLLIYRAANLESGIPARFSGSGSRTDFTLTINPVETDDVAIYYCQQNNKDPFTFGSGTKLEIKR
notes: as for B1
B12: S009-F7.65.13 (antibody, human IgG1, kappa, V domains shown)
VH: EVQLQQSGPELVKPGTSVKILCKASGDTFTAYNMDWVKQRHGQSLEWIGDINPNTDSTIYNQKFEGKAILTVDKSSSTAYMELRSLTSEDTAVYYCARRKLGRGYFDYWGQGTTLTVSS
VL: QIVLTQSPAIMSASPGEKVTMTCSVNLSVRYIYWYQQKPGSSPRLLIHDTSNLASGVPVRFSGSGSGTSYSLTISRMEAEDAATYYCQQWSSFPYTFGGGTKLEIKR
notes: as for B1

What was measured:
[1] = target: T1, monkey MSLN full-length protein (NCBI: XP_028696439.1) expressed on HEK293T-monkey MSLN cells (monkey); experiment: FACS on HEK293T-monkey MSLN cells;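 further: flow cytometry binding of chimeric antibodies to the cells, with a 2 h incubation on ice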
T1 construct: Whole encoded precursor
T1 chain: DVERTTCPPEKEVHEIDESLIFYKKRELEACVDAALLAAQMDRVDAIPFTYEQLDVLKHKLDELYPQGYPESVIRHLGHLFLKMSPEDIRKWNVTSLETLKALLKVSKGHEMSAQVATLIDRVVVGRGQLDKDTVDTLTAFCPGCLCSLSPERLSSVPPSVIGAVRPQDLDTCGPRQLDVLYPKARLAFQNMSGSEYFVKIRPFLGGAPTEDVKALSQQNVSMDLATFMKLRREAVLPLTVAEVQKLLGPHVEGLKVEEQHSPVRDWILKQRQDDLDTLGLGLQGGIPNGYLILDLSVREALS

[2] = target: T2, human MSLN-R3 protein (Met487-Ser606 of NCBI AAH09272.1) expressed on HEK293T-hMSLN-R3 cells (human, UniProt Q13421 487-606); experiment: FACS on HEK293T-hMSLN-R3 cells;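 further: flow cytometry binding of test chimeric antibodies to cells after 2 h incubation on ice, with values derived from the mean fluorescence intensity of the cells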
T2 construct: also called Region3

[3] = target: T3, human MSLN protein endogenously expressed on OVCAR3 tumor cells (human, UniProt Q13421 296-598); experiment: FACS on OVCAR3 cells;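 further: flow cytometry binding of test antibodies to cells, 2 h incubation on ice, readout as cell mean fluorescence intensity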
T3 construct: whole, on cells; Endogenous target on OVCAR3 cells; kept apart from the recombinant full-length construct; also called mesothelin
T3 sequence (Q13421 other isoform, or with tags, fused parts or gaps): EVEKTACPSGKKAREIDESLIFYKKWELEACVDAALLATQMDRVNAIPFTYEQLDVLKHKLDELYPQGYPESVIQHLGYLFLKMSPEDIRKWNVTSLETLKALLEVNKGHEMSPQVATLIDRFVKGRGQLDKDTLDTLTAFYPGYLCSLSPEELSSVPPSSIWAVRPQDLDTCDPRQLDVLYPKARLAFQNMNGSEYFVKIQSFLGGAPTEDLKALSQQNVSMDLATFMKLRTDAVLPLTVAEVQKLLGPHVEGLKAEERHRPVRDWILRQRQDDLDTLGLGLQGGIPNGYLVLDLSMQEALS

T2 sequence (Q13421 495-614): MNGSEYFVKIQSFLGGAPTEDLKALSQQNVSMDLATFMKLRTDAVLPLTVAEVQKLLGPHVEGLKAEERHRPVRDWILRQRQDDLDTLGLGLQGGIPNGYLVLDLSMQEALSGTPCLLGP

Row | Binder | EC50 [1] [nM] | Maximum mean fluorescence intensity [1] | EC50 [2] [nM] | Maximum mean fluorescence intensity [2] | EC50 [3] [nM] | Maximum mean fluorescence intensity [3] | binding result [1]
1 | B1 | ~0.16 | 43200 | 0.06 | 5350 | 0.18 | 24200 | 
2 | B2 | 0.34 | 47400 | 0.24 | 6160 | 0.66 | 31800 | 
3 | B3 | 2.88 | 43200 | 1.87 | 5150 | ~4 | 24000 | 
4 | B4 | 0.13 | 47300 | 0.06 | 6480 | 0.15 | 31200 | 
5 | B5 | 1.13 | 47400 | 1.3 | 6480 | 1.09 | 23600 | 
6 | B6 |  | 108 | 0.09 | 6940 | 0.2 | 16200 | no binding
7 | B7 | 0.36 | 59300 | 0.14 | 6930 | 0.37 | 29100 | 
8 | B8 | 0.04 | 45600 | 0.04 | 7470 | 0.05 | 25700 | 
9 | B9 | 0.75 | 39800 | 0.48 | 6250 | 1.08 | 23700 | 
10 | B10 | 0.54 | 64200 | 0.35 | 7460 | 0.22 | 25900 | 
11 | B11 |  | 60 | 0.38 | 5900 | 0.87 | 21900 | no binding
12 | B12 | 0.87 | 50200 | 0.91 | 6490 | 0.87 | 26500 | 
